Article PMC3210727 (Science (New York, N.Y.), 2011)

Legend:
Assay in all cases: flow cytometry on cells
[1] = biological target: surface-expressed H3 HA from A/Hong Kong/1/1968, cleaved (HA) (Influenza A virus (strain A/Hong …, UniProt Q91MA7))
[2] = biological target: surface-expressed H3 HA from A/Hong Kong/1/1968, uncleaved precursor (HA0) (Influenza A virus (strain A/Hong …, UniProt Q91MA7))
[3] = biological target: surface-expressed H3 HA from A/Hong Kong/24/1985, cleaved (HA) (Influenza A virus A/Hong Kong/24/1985 …, UniProt Q38TK5, strain)
[4] = biological target: surface-expressed H7 HA, uncleaved (HA0) (Influenza A virus H7, strain not named; …, UniProt Q6VMK1)
[5] = biological target: surface-expressed H7 HA, cleaved (HA) (Influenza A virus H7, strain not named; …, UniProt Q6VMK1)

Measured: binding result

B1: human monoclonal antibody CR8020 (antibody, V domains shown)
VH: QVQLQQSGAEVKTPGASVKVSCKASGYTFTSFGVSWIRQAPGQGLEWIGWISAYNGDTYYAQKFQARVTMTTDTSTTTAYMEMRSLRSDDTAVYYCAREPPLFYSSWSLDNWGQGTLVTVSS
VL: EIVMTQSPGTLSLSPGERATLSCRASQSVSMNYLAWFQQKPGQAPRLLIYGASRRATGIPDRISGSGSGTDFTLTISRLEPADFAVYYCQQYGTSPRTFGQGAKVEIK
binds: [1] | [2] | [3] | [4] | [5]
